Results as given in patent publication US20200131473A1, “METHOD OF GENERATING 2 CELL-LIKE STEM CELLS” (IFOM FONDAZIONE ISTITUTO FIRC DI ONCOLOGIA MOLECOLARE, priority 2017, published 2020).

Assays:
Assay type in all cases: cell-based, mouse
pZscan4-Emerald ESCs = assay: FACS analysis of Zscan4-Emerald ESCs (Emerald-GFP positive cells)
Procedure: (§1) All treatments including APH, HU, UV, ATRi, ATMi and Chk1i were added in to fresh ESC medium and the cells were kept in 37° C. and 3% 02 tension for overnight (16-17 hrs) unless mentioned in each particular result section. APH was used at various concentrations ranging from 0.3 uM to 6 uM that is mentioned in each experiment in order to induce mild to acute replication stress response. Similarly, HU was used at 0.1 mM-3 mM. ATMi (KU-55933) and ATRi (VE 822) were used at the concentration of 10 uM and 1 uM respectively. Moreover, Chk1i (UCN-01) at the concentration of 100 nM was used. UV radiation was performed at the dosage ranging from 2 to 10 J/m2. For induction of ETAA1-AAD expression, Dox was used at the concentration of 1 μg/mL for 48 hrs.
ESCs were fixed and permeabilized using Cytoperm/Cytofix kit (BD Biosciences), and subsequently stained for one hour at room temperature with Alexa Fluor® 647 anti-H2AX-Phosphorylated (Ser139) antibody (Biolegend) or P-CHK1-PE conjugated antibody (cell signaling 12268). Cells were washed and acquired on a FACS Calibur instrument or Attune NxT (Thermo Fisher Scientific). For Emerald-GFP acquisition, cells were trypsinized, collected and subsequently acquired without fixation. Cell cycle profiles were acquired after incubation with DAPI (4′,6-diamidino-2-phenylindole) overnight. […]

[1] = system: 2C-like genes (Zscan4, MuERV-L/MERVL, Dux) in ESCs (E14, R1); assay: qPCR for 2C-like specific genes in ESCs; conditions: Dox-inducible expression of ETAA1-AAD
Procedure: as §1
RNA was extracted using RNeasy mini kit (QIAGEN), quantified by NanoDrop spectrophotometer and cDNA was prepared from 2 μg total DNA-depleted RNA using SuperScript™ III reverse transcriptase kit (Invitrogen cat #18080-093) following manufacturer's instructions. qPCR assay performed based on standard protocol using 10× SsoFast™ EvaGreen® Supermix or later 1× LightCycler 480 SYBR Green I Master (Roche, 04707516001), 0.5 μM primer mix and 5 ng of cDNA. GAPDH was used as internal control to normalise the qPCR data following ΔΔCt method, 10 μM primer mix and a total amount of cDNA corresponding to 5 ng of starting RNA for each reaction.

[2] = system: ATR pathway (γH2AX, CHK1, CHK2 phosphorylation); assay: FACS and immunoblot for ATR pathway activation upon ETAA1-AAD overexpression; conditions: for number of γH2AX positive cells: versus empty vector (EV) infected ESCs
Text: ESCs were fixed and permeabilized using Cytoperm/Cytofix kit (BD Biosciences), and subsequently stained for one hour at room temperature with Alexa Fluor® 647 anti-H2AX-Phosphorylated (Ser139) antibody (Biolegend) or P-CHK1-PE conjugated antibody (cell signaling 12268). Cells were washed and acquired on a FACS Calibur instrument or Attune NxT (Thermo Fisher Scientific). For Emerald-GFP acquisition, cells were trypsinized, collected and subsequently acquired without fixation. Cell cycle profiles were acquired after incubation with DAPI (4′,6-diamidino-2-phenylindole) overnight. For Caspase3 FACS analysis after fixation and permeabilization, Cleaved Caspase3 antibody were used for one hr at RT followed by washes and one hr incubation in donkey anti rabbit secondary antibody. […]
The cells were trypsinized and washed with PBS and then lysed in RIPA buffer plus protease/phosphatase inhibitor cocktail (cell signaling, #5872), incubating for 30 minutes on a rotating wheel at +4° C. Lysates were sonicated with a Bioruptor Sonication System (UCD200) at high power for 3 cycles of 30 seconds with one minute breaks. Lysates were centrifuged at 13000 rpm for 20-30 minutes and clear supernatants were transferred to new tubes. The proteins were quantified using Bio-Rad protein assay and following manufacturer's instructions. For the detection of each protein, 35 μg of total protein extracts were loaded. Standard western blot was performed using following antibodies: ATR antibody (Cell Signaling 2790), Phoshpho-Chk1 antibody-S345 (Cell signaling 2348), Phoshpho-Chk1 antibody S317 (cell signaling 12302), Zscan4 antibody (Abcam ab4340), total Chk1 antibody (Santa Cruz 8408) and Chk2 antibody (Millipore 05-649), Anti-P53 (Cell Signalling, 2524S) and Anti-p-P53 (S15) (Cell Signalling, 12571S), Anti-Goat ALexa488 (Thermo Fisher Scientific, A-11055), Anti-Rabbit Cy3 (Jackson ImmunoResearch, 711-165-152), Anti-Mouse Alexa647 (Thermo Fisher Scientific, A-31571). […]

B1: ETAA1-AAD: ATR activating domain of Ewing's tumor-associated antigen 1, overexpressed in ESCs by lentivirus (SEQ ID NO: 2) (protein)
chain: VRQREQPPTAALCSKSNPEERYETPKRALKMETDSLSSSFSSPNDPDGQNDIFWDQNSPLTKQLGKGRKKQIYTTDSDEISHIVNRIAPQDEKPTTNSMETLDMETWIGETAIPCTPSVAKGKSRAKISCTKLKTQSQEEELMETKLAKQFDKNMETEELDVIQEQNKRNYDFTQ
pZscan4-Emerald ESCs; Dox-inducible expression of ETAA1-AAD
  Z+ population in ESCs culture: significant increase
pZscan4-Emerald ESCs; ETAA1-AAD lentivirus infected Zscan4-Emerald ESCs vs empty vector
  increase in the number of Zscan4-positive population in ESC culture: up to 3 fold
[1]
  transcription of Zscan4, Dux and MERVL: transcriptional activation of Zscan4, Dux and MERVL
[2]; ATR activation through ETAA1 expression
  phosphorylation of H2AX, CHK1 and CHK2 in ESCs: leads to the phosphorylation of H2AX and CHK1 but not CHK2
[2]
  number of γH2AX positive cells: increase in the number of γH2AX cells
[2]; listed as ETAA1-AAD lentivirus
  number of γH2AX positive cells: increase in the number of γH2AX positive cell
